Reference: US20160032398A1, “METHODS FOR TREATING CANCER” (COMBIMMUNE, INC., priority 2013, published 2016)

Key:
LMO2 = assay: RT-qPCR of tumors for LMO2 (Example 10); assay type: in vivo, C57BL6 mice; conditions: after 17 days; chemerin tumors vs control; FIG. 12
Method: (§1) In order to determine the effect of chemerin on the TGS components in a mouse model, B16 melanoma tumors were implanted subcutaneously in C57BL6 mice. One cohort of mice received control tumors that received no treatment. The other cohort received tumors that were engineered to secrete the chemoattractant chemerin locally, thereby mimicking intratumoral injections of the chemoattractant.
(§2) After a period of 17 days, tumors were analyzed by RT-qPCR for LMO2 and CD137 (TNFRSF9), the key components of the TGS. […] Accordingly, a calculated TGS from the tumors would result in improved/lowered TGS score for the chemerin-treated group, whereas the control group that was not treated, and thus had fewer infiltrating NK and T cells, would have a worse/higher TGS score. GAPDH was used as the housekeeping/reference gene (not shown).

CD137 (TNFRSF9) [1] = assay: RT-qPCR of tumors for CD137 (Example 10); assay type: in vivo, C57BL6 mice; conditions: after 17 days; chemerin tumors (n=5) vs control group (n=4); GAPDH reference; FIG. 12
Method: as §1, §2

B16 melanoma tumors [2] = assay: Chemerin-secreting B16 melanoma tumors: tumor size (Example 10); assay type: in vivo, C57BL6 mice; conditions: chemerin (RARRES2) secreting tumors vs control tumors; p<0.05; FIG. 11
Description: as §1
Clinically, the changes in the number of tumor-infiltrating leukocytes also correlated with tumor growth as well.

B16 melanoma tumors [3] = assay: Control, EGFR-expressing and chemerin-secreting B16 tumors: tumor-infiltrating leukocytes by FACS (Example 11); assay type: in vivo, mice; conditions: chemerin-secreting B16 tumors; Day 11; FIG. 13B
Method: (§3) In a separate experiment, three cohorts of mice were inoculated with B16 melanoma tumors. […] Each group comprised three mice. Tumors were allowed to grow until Day 9. […] Forty-eight hours after the single injection (Day 11), the tumors from all three groups were analyzed for infiltrating NK and T cells, as well as CD137 (TNFRSF9) expression.

B16 melanoma tumors [4] = assay: Chemerin-secreting B16 melanoma tumors: tumor-infiltrating leukocytes (Example 10); assay type: in vivo, C57BL6 mice; conditions: tumors engineered to secrete chemerin vs control tumors; FIG. 9
Description: as §1

B16 melanoma tumors [5] = assay: Control, EGFR-expressing and chemerin-secreting B16 tumors: tumor size (Example 11); assay type: in vivo, mice; conditions: chemerin-secreting B16 tumors; Day 11; vs control tumors treated with cetuximab; FIG. 16
Method: as §3
The same tumors from the three groups were analyzed for tumor size (mm^2), a surrogate for clinical outcomes and survival, at pretreatment ([…]) and post-treatment (Day 11).

B16 melanoma tumors [6] = assay: Mouse model of melanoma treated with chemerin: tumor growth, with NK cell depletion (Example 5); assay type: in vivo, mice (C57BL/6); conditions: FIG. 10
Method: (§4) A mouse model of melanoma was used to study the effect of an immunomodulator, chemerin (RARRES2) (Pachynski et al. J. Exp. Med. 209(8):1427-1435, 2012). Both control and chemerin-over expressing tumors were transplanted into mice. Intratumoral injections of chemerin were also evaluated. For all animal experiments, C57BL/6 or B6.129S7-Rag1tm1Mom/J (RAG1 KO) mice were purchased from the Jackson Laboratory. Murine B16F0 melanoma, L1.2 B lymphoma, and human 293 HEK lines were obtained from the American Type Culture Collection. Cell lines were grown in complete media consisting of RPMI 1640 supplemented with 10% FBS, sodium pyruvate, penicillin/streptomycin, and beta-mercaptoethanol.
(§5) To evaluate the effect of constitutively secreted chemerin on tumor growth, control or chemerin-expressing B16 melanoma tumor cells (0.5×10^6 or 1×10^6) were inoculated subcutaneously into mice. Tumor growth was measured every 2-4 d by calipers, and size was expressed as the product of perpendicular length by width in square millimeters. Mice were euthanized when tumor size reached about 400 mm^2 or when tumor sites ulcerated or at day 17 to evaluate for tumor-infiltrating leukocytes (TILs) by FACS.
(§6) To evaluate the effect of exogenous chemerin on tumor growth, tumor lines were inoculated as indicated. Recombinant, active, carrier-free murine chemerin (R&D Systems) was reconstituted in sterile PBS. […]

CD137 = assay: RT-qPCR of tumor biopsies for CD137 (Example 11); assay type: in vivo, mice
Method: as §3
Tumor biopsies from the three treatment groups were also analyzed by RT-qPCR to measure LMO2 and CD137 expression.
The TGS takes into account the relative expression levels of both CD137 and LMO2. Therefore, the ratio of relative expression of CD137 to LMO2 was determined.

B16 melanoma tumors [7] = assay: Mouse model of melanoma treated with chemerin: tumor-infiltrating leukocytes by FACS (Example 5); assay type: in vivo, mice (C57BL/6)
Method: as §4, §5, §6

CD137 (TNFRSF9) [8] = assay: CD137 expression on tumor-infiltrating leukocytes by FACS (Example 11); assay type: in vivo, mice; conditions: chemerin-secreting B16 tumors; vs control tumors treated with cetuximab; FIG. 14
Method: as §3

B1: chemerin: chemoattractant polypeptide that attracts cells including NK cells, T cells, macrophages and dendritic cell subsets; given recombinant or secreted by engineered tumors (protein, UniProt Q99969 21-157, looked up)
Retinoic acid receptor …: ELTEAQRRGLQVALEEFHKHPPVQWAFQETSVESAVDTPFPAGIFVRLEFKLQQTSCRKRDWKKPECKVRPNGRKRKCLACIKLGSEDKVLGRLVHCPIETQVLREAEEHQETQCLRVQRAGEDPHSFYFPGQFAFS
LMO2
  LMO2 expression by RT-qPCR: not significantly changed
CD137 (TNFRSF9) [1]
  CD137 (TNFRSF9) expression by RT-qPCR: significantly increased
B16 melanoma tumors [2]
  tumor size: significantly smaller than control tumors
B16 melanoma tumors [3]
  CD8+ T cells and NK cells of CD45+ TIL: small increases in both CD8+ T cells and NK cells
B16 melanoma tumors [4]
  tumor-infiltrating leukocytes (NK and T cells): increase in tumor-infiltrating leukocytes
B16 melanoma tumors [5]
  tumor size: significantly smaller than control tumors
B16 melanoma tumors [6]; NK cells depleted with anti-Asialo GM1
  clinical efficacy on tumor growth after depletion of NK cells: abrogated the clinical efficacy
B16 melanoma tumors [6]; mice
  tumor growth: inhibit tumor growth
CD137; chemerin treated tumors vs non-EGFR and cetuximab treated tumors, FIG. 19
  CD137:LMO2 ratio of relative expression: greater
CD137; tumors treated with chemerin, 48 hours time point, FIG. 17B
  relative CD137 expression (RT-qPCR): significantly higher
B16 melanoma tumors [7]; FIG. 8
  NK and T cells in murine tumors: increase in NK and T cells
B16 melanoma tumors [7]; FIG. 9
  infiltrating leukocyte subsets in murine tumors (activated NK and T cells): increased the representation of activated NK and T cells
CD137 (TNFRSF9) [8]
  CD137 expression on total tumor-infiltrating leukocytes (FACS): increase in CD137 expression
